# Measurements as given in patent US20030186334A1, “KTS-disintegrins” (Temple University - Of the Commonwealth System of Higher …, priority 2001, published 2003).
# Legend:
# [1] = target: T1, α1β1 integrin (Mus musculus, UniProt P09055+Q3V3R4); assay: adhesion of B16F10 cells to collagen IV; assay type: cell-based; conditions: α1β1, Coll IV
# T1 construct: endogenous in cells; host or cells: B16F10 cells
# [2] = system: angiogenesis; assay: Japanese quail chorioallantoic membrane (CAM) angiogenesis assay; assay type: in vivo; conditions: 20 μg and 50 μg, no angiogenesis stimulators
# Experimental: The disintegrins obtustatin and eristostatin were evaluated for their effect on angiogenesis via a Japanese quail chorioallantoic membrane (CAM) assay, as is known in the art (see, for example, Parsons-Wingerter P et al., “A Novel Assay of Angiogenesis in the Quail Chorioallantoic Membrane: Stimulation by bFGF and Inhibition by Angiostatin According to Fractal Dimension and Grid Intersection.” Microvascular Research 55(3):201-214, 1998, the disclosure of which is herein incorporated by reference).
# [3] = system: dermal microvascular endothelial cells (EC); assay: apoptosis by caspase-3 levels in dermal microvascular endothelial cells; assay type: cell-based
# Experimental: (§1) The mechanisms of the cancer-suppressing effect observed for obtustatin were investigated as follows. Dermal microvascular endothelial cells (EC) and human melanoma cells (MV3) were cultured and exposed to TNF-α, vincristine and obtustatin. (TNF-α and vincristine are compounds which induce cell death by apoptosis in both normal and cancerous cells.) Control cells received only vehicle. The extent of apoptosis was measured by determining caspase-3 levels.
# [4] = system: melanoma cells (HS.939T); assay: BrdU incorporation growth assay in HS.939T melanoma cells; assay type: cell-based, human; conditions: 2 μM
# Experimental: (§2) Human microvascular endothelial cells (HMVECs) and melanoma cells (HS.939T) were cultured and treated with vehicle (control), 2 μM obtustatin, 2 μM echistatin or 50 ng/ml TNF-α. Growth of the cells was determined by a standard BrdU incorporation assay (Chemicon), according to the manufacturer's instructions.
# [5] = system: human melanoma cells (MV3); assay: apoptosis by caspase-3 levels in melanoma MV3 cells; assay type: cell-based
# Experimental: as §1
# [6] = target: T2, α5β1 integrin (Homo sapiens, UniProt P05556+P08648); assay: adhesion of K562 cells to fibronectin; assay type: cell-based
# T2 construct: endogenous in cells; host or cells: K562 cells
# Experimental: (§3) Adhesive ligands for the selected integrins consisted of collagen IV (0.2 μg/well), collagen I, fibronectin, or vascular cell adhesion molecule-1 (VCAM-1). Adhesive ligands in 0.02 M acetic acid were immobilized overnight at 4° C. on a 96-well plate. Plates were then blocked with 1% (w/v) BSA (bovine serum albumin) in Hank's Balanced Salt Solution (HBSS) containing 3 mM Mg^2+ at room temperature for 1-2 hours to prevent cells from non-specifically binding to the plates. α1K562, α2K562, K562, A5, and Jurkat cells expressing the α1β1, α2β1, α5β1, αIIbβ3, and α4β1 integrins respectively were labeled by incubation with 12.5 μM 5-chloromethylfluorescein diacetate (CMFDA) in HBSS for 15 minutes at 37° C. CMFDA labeled cells were then pelleted, washed and resuspended in HBSS buffer containing 3 mM Mg^2+ and 1% (w/v) BSA. […] Plates were then incubated at 37° C. for 30 minutes as indicated in Table 5 and washed three times with HBSS containing 3 mM Mg^2+ and 1% (w/v) BSA to remove unbound cells. Bound cells were lysed using 0.5% (v/v) Triton X-100 in H2O. Fluorescent CMFDA released by lysis of adherent cells in a given well was read using a Cytofluor 2350 fluorescence plate reader.
# (§4) The effect of obtustatin, viperisrastatin, echistatin, and eristostatin on the binding of selected integrins to their adhesive ligands was evaluated using the cell adhesion assay described in Example 6. The integrin-expressing cells, integrins and corresponding adhesive ligands, and the results of the cell adhesion assay are shown in Table 6.
# [7] = target: T3, α1β1 integrin (Homo sapiens, UniProt P05556+P56199); assay: adhesion of HS.939T cells to collagen IV; assay type: cell-based; conditions: α1β1, Coll IV
# T3 construct: expressed in transfected cells; host or cells: α1K562 cells
# [8] = target: α2β1 integrin (Homo sapiens, UniProt P05556+P17301); assay: adhesion of α2K562 cells to collagen I; assay type: cell-based; set-up: expressed in transfected cells; host or cells: α2K562 cells
# Experimental: as §3, §4
# [9] = target: T3, α1β1 integrin; assay: adhesion of α1K562 cells to collagen I; assay type: cell-based; conditions: α1β1, Coll I
# Experimental: as §3, §4
# [10] = target: T4, αIIbβ3 integrin (Homo sapiens, UniProt P05106+P08514); assay: adhesion of A5 cells to fibrinogen; assay type: cell-based
# T4 construct: expressed in transfected cells; host or cells: A5 cells
# Experimental: as §3, §4
# [11] = system: Lewis lung carcinoma; assay: Lewis lung carcinoma growth in syngeneic mouse model; assay type: in vivo, C57BL/6 mice; conditions: 5 mg/kg intraperitoneally once daily for eight days
# Experimental: Lewis lung carcinoma cells (1×10^6) were injected under the skin of the C57BL/6 mice (Tacoma Inc., Germantown, N.Y.), and tumors were allowed to grow for one week. The average tumor size after one week of growth was approximately 0.08 cm^3. The one-week time-point was called “day 0.” Two treatment groups of four mice each were injected intraperitoneally once daily with either 5 mg/kg obtustatin or 5 mg/kg echistatin beginning on day 0 for a total of eight days. A control group of four mice received only PBS. Tumor volume was measured daily using the formula length×width^2×0.52.
# [12] = system: human microvascular endothelial cells (HMVECs); assay: BrdU incorporation growth assay in HMVECs; assay type: cell-based; conditions: 2 μM
# Experimental: as §2
# [13] = target: T5, αvβ3 integrin (Homo sapiens, UniProt P05106+P06756); assay: adhesion of JY cells to vitronectin; assay type: cell-based; conditions: αvβ3, VN
# T5 construct: endogenous in cells; host or cells: JY cells
# T5 sequence (P06756 31-889 limits assumed): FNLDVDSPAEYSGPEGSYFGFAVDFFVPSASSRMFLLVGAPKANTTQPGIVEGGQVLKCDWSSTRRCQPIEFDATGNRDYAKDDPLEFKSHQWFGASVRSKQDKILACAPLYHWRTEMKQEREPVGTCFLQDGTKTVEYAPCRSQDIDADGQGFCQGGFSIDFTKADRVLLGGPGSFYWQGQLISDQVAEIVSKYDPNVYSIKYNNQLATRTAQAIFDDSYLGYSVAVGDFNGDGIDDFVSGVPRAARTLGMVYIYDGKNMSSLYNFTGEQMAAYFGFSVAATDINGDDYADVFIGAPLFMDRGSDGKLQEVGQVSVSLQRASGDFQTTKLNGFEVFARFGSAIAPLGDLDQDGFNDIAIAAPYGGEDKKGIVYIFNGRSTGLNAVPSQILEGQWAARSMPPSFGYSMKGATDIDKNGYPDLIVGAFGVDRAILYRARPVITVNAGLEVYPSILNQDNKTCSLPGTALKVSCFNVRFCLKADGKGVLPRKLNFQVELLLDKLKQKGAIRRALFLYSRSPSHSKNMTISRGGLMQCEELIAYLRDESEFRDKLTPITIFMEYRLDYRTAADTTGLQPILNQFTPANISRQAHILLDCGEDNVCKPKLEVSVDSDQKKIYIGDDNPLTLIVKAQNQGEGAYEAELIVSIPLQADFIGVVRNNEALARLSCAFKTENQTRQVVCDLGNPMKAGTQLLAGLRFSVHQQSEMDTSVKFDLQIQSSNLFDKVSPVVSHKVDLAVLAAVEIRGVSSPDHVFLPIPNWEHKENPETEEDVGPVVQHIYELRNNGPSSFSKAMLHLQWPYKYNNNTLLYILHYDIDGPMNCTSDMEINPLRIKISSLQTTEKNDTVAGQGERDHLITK
# T5 sequence (P06756 891-1048 partner limits assumed): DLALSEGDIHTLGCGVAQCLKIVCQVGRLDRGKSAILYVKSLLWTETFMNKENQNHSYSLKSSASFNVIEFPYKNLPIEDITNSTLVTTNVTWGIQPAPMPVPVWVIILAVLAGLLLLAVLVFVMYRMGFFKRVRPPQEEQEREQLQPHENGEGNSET
# T5 sequence (P05106 27-788): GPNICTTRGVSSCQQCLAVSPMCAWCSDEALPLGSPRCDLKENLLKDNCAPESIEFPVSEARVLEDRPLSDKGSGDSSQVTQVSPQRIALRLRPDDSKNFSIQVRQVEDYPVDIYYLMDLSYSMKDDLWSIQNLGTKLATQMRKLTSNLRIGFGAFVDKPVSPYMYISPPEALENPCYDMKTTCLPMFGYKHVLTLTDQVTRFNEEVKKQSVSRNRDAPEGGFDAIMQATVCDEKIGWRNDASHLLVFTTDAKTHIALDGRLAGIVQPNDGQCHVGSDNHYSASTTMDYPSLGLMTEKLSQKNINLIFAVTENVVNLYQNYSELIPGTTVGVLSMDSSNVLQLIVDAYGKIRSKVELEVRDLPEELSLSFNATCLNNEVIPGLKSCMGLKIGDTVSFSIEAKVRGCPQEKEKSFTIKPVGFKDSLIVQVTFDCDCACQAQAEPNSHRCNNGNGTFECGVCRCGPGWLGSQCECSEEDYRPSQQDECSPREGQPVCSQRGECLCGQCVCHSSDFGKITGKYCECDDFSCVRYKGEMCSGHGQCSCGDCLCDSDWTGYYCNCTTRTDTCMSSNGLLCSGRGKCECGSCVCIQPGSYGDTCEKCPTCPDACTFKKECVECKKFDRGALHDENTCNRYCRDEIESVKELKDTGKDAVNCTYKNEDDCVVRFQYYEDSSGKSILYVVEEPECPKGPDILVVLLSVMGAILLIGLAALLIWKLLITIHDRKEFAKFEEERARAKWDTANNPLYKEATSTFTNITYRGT
# T2 sequence (P08648 42-894 limits assumed): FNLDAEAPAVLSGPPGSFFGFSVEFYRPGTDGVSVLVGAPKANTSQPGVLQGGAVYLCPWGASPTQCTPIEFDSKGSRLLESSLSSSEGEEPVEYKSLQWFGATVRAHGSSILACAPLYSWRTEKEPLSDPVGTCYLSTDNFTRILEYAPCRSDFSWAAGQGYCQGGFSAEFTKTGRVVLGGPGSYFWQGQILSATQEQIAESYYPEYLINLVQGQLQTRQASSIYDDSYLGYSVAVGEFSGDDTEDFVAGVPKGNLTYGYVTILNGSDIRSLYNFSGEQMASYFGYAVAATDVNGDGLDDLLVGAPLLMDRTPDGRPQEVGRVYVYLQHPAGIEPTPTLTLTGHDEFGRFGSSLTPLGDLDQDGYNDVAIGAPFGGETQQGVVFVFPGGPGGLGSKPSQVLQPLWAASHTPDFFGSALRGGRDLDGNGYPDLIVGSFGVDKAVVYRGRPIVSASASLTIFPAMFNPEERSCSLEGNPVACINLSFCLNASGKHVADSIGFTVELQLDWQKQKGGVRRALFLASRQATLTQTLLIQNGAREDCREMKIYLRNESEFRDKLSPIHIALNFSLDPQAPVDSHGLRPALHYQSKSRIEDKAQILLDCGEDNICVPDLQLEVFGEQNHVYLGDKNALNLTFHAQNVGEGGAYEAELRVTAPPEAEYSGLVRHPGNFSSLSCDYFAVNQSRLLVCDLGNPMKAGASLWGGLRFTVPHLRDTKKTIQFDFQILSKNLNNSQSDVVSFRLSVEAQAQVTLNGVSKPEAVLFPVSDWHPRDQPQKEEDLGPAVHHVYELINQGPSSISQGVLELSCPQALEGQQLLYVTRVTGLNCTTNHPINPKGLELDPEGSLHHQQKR
# T2 sequence (P08648 895-1049 partner limits assumed): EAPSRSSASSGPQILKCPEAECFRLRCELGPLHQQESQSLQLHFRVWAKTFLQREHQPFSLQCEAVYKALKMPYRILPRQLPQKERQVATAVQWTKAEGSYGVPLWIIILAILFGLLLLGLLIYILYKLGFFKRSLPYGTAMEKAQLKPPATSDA
# T2 sequence (P05556 21-798): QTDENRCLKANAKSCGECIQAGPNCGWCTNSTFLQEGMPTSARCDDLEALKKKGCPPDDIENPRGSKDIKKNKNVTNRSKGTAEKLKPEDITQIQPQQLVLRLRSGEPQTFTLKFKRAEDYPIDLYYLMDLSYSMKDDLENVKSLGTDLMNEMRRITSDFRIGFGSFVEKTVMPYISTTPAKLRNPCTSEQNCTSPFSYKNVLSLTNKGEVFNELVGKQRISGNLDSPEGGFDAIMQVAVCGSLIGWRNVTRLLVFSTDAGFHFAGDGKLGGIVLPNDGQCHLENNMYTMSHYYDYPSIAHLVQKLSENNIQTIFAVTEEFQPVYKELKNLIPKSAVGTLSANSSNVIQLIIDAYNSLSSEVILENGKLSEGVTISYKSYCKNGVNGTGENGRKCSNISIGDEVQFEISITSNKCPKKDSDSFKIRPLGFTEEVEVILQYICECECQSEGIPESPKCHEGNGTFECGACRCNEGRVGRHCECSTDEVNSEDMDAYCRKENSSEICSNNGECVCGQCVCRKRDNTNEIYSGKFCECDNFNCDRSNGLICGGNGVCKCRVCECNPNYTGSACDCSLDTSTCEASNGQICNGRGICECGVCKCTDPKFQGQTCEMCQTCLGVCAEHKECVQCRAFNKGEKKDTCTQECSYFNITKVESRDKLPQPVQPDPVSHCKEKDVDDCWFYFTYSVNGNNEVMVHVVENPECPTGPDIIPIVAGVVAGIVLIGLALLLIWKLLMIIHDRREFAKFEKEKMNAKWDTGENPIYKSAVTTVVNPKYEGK
# T3 sequence (P56199 29-1179): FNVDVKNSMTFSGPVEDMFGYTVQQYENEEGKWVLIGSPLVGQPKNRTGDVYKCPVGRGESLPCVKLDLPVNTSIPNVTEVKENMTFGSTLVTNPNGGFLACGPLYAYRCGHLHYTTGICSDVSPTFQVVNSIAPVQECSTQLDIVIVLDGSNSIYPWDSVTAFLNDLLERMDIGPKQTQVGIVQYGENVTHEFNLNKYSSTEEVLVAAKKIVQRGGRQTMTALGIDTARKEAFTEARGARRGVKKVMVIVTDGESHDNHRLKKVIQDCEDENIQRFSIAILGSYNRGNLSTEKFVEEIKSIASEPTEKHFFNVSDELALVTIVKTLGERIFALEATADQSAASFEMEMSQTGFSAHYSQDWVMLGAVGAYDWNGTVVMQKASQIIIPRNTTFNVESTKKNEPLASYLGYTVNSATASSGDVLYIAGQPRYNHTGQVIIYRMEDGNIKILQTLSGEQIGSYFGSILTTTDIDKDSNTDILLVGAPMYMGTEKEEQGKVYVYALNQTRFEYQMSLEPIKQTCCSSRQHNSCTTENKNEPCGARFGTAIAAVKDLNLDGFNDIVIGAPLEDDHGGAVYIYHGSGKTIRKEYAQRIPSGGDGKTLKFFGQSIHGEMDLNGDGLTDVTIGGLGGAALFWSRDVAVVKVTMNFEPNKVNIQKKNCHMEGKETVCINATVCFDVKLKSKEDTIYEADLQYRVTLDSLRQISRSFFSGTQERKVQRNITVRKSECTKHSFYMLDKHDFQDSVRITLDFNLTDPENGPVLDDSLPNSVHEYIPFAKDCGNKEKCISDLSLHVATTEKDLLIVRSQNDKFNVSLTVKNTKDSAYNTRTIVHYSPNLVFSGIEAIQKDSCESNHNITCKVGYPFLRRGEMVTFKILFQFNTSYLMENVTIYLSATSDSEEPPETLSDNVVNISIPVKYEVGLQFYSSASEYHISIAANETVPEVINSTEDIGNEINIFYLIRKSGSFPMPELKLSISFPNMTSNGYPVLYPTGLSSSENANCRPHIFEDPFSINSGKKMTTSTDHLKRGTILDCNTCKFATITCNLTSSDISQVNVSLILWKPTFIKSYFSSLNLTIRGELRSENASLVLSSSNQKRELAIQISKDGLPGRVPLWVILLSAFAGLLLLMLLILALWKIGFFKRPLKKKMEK
# T3 sequence (P05556 21-798): as the sequence (P05556 21-798) above
substance,measurement,setting,value
Obtustatin (CTTGPCCRQCKLKPAGTTCWKTSLTSHYCTGKSCDCPLYPG),IC50,[1],0.2 nM
same,inhibitory activity on angiogenesis (fractal dimension),[2],up to 30 % of control
same,apoptosis (caspase-3),[3],induced significant apoptosis
same,growth (BrdU incorporation),[4],not the HS.939T melanoma cells
same,apoptosis (caspase-3),[5],not in MV3 cells
same,IC50,[6],> 10000 nM
same,IC50,[7],0.1 nM
same,IC50,[8],> 10000 nM
same,IC50,[9],0.5 nM
same,IC50,[10],> 10000 nM
same,inhibition of tumor development (tumor volume),[11],by about half
same,growth (BrdU incorporation),[12],inhibited growth
same,IC50,[13],> 10000 nM
